Test results published in doi:10.1101/713677.

Molecular target: zip (positive control of the BACTH system)
Assay: two-hybrid

β-galactosidase activity: 63300 Miller units
Substance: zip (positive control of the BACTH system) (domain or fragment)
